Patent US7960513B2, “Antibody against a human ADAM protease” (Monash University, priority 2004, dated 2011)

T1: EphA3/ephrin-A5 complex on cells (cell-surface EphA3 with pre-clustered ephrin-A5-Fc), P29320
T1 chain 1: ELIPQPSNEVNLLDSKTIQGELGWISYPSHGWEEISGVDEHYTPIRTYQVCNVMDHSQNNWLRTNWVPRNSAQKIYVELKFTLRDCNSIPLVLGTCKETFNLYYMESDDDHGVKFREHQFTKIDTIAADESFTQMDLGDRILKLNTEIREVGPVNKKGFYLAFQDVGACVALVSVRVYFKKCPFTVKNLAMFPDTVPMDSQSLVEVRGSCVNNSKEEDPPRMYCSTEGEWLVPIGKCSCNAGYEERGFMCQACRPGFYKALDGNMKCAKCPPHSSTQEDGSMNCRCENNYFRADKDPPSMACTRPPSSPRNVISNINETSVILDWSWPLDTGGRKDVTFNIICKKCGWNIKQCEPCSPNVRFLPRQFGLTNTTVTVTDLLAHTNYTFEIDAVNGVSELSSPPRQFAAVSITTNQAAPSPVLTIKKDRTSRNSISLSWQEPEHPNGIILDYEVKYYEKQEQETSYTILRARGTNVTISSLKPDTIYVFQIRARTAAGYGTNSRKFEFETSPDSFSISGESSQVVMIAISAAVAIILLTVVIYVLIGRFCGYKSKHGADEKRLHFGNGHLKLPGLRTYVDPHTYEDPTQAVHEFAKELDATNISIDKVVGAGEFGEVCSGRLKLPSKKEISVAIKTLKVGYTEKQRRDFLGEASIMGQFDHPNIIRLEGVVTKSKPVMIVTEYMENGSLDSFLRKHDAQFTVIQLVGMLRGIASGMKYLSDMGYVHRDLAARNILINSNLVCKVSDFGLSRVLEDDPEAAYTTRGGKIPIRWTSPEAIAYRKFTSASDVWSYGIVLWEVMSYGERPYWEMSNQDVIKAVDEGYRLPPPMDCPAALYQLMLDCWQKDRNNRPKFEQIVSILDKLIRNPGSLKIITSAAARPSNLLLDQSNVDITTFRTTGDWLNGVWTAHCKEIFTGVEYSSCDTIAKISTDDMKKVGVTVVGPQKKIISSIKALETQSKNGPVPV
T1 chain 2: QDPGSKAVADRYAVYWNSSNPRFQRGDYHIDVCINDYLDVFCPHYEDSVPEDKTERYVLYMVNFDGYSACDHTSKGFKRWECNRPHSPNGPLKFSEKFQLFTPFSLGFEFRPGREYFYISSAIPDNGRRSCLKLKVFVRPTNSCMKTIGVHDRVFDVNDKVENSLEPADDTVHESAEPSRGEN

T2: EphA3/ephrin-A5 complex (Homo sapiens, UniProt P29320+P52803)
T2 construct: incubated with Fc-tagged ectodomains of Eph-A3, EphB2, EphB4 and ephrin-A2, ephrin-A5, ephrin-B2 (R&D systems)
T2 sequence (P29320 21-541 limits assumed): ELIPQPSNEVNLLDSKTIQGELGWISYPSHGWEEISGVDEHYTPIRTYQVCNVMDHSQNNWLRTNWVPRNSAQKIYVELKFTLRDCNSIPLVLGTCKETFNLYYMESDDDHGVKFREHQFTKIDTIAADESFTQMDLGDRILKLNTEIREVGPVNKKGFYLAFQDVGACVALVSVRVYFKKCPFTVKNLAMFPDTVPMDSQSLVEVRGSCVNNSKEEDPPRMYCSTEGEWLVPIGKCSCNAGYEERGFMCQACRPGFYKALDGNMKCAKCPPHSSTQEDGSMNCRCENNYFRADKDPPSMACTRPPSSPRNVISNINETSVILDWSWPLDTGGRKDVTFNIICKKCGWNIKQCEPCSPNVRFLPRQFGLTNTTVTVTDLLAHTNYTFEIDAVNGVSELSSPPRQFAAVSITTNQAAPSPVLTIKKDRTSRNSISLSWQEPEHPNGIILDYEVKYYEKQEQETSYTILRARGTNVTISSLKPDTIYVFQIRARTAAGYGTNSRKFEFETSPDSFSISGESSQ
T2 sequence (P52803 21-203 limits assumed): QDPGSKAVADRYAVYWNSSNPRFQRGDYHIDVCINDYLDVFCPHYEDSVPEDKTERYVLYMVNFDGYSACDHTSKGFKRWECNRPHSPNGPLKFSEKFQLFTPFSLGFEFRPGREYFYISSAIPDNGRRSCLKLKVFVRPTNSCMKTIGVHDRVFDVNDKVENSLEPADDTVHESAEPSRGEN


Columns and labels:
EphA3/HEK293 cells = assay: Ephrin-A5 cleavage and internalisation in EphA3-expressing cells treated with clustered ephrin-A5-Fc / ephrinA5-Fc beads; assay type: cell-based, human
Description: FIG. 1. EphA3-ADAM10 association, ephrin-A5 cleavage and ephrin internalisation. • A. Association of ADAM10 with EphA3 in LiBr melanoma cells and parental or stably transfected EphA3/HEK293 cells. The cells were treated with clustered ephrin-Fc (A5 or A2) or were left untreated (−) prior to lysis. Anti-EphA3 immunoprecipitates from lysates were analysed by Western blot for endogenous ADAM10 (“p” and “m” indicate the pro (unprocessed) and mature (processed) forms of ADAM10). Aliquots from immunoprecipitates were blotted for EphA3 levels to indicate loading (lower panel). […] EphA3/HEK293 or ephrin-A5/HEK293 cells were transfected to express HA-tagged ADAM10ΔPM. Western Blots of anti-HA immuno-precipitates were analysed with antibodies against ephrin-A5 and EphA3, parallel control samples with anti-ADAM10 antibodies. Lysates of ephrin-A5/HEK 293 cells were also extracted with Protein-A Sepharose-bound EphA3 Fc and analysed with anti-ephrin-A5 antibodies. • C. […] Pooled cell lysates and supernatants were pre-cleared with excess Protein-A Sepharose, cleaved ephrin-A5 was extracted using EphA3-Fc coupled to Protein-A Sepharose and analysed by anti-ephrin-A5 immuno-blot. Recombinant, monomeric, single-chain ephrin-A5 (Himanen et al., 2004, Nat Neurosci. 7 501-9; ephrin std) was analysed in parallel. • D. Ephrin-A5 cleavage and internalisation are inhibited by dominant-negative ADAM10. […]

[1] = target: T1, EphA3/ephrin-A5 complex on cells …
EphA3/ephrin-A5 complex = target: T2, EphA3/ephrin-A5 complex; assay: In vitro binding (Protein-A pull-down) assay; conditions: EphA3-Fc plus untagged ephrin-A5
Description: Pull-down experiments were done as follows: ADAM10D+C, ADAM17D+C w.t. or the alanine mutants (˜15 μg) were incubated with Fc-tagged ectodomains of Eph-A3, EphB2, EphB4 and ephrin-A2, ephrin-A5, ephrin-B2 (R&D systems) at 4° C. for 30 min in 500 μL of binding buffer containing 10 mM HEPES (pH 7.4), 150 mM NaCl and 0.05% of Triton X-100. To test binding to the preformed EphA3/ephrin-A5 complex, 5 μg of the untagged ephrin-A5 was incubated with Fc tagged EphA3 for 30 min at 4° C. followed by the addition of ADAM10. The proteins were incubated for an additional 30 min., when Protein-A-Sepharose (Amersham) beads were added to the reaction mixture and shaken at 4° C. for 2h. The beads were then harvested by centrifugation, washed once with 500 μl of binding buffer and the bound proteins were separated on a 10-20% gradient polyacrylamide gel. The binding of the individual ADAM domains was carried out likewise using 15 μg of the disintegrin and 8 μg of the cysteine-rich domain.

| Molecule | ephrin-A5 cleavage (cleaved ephrin-A5 recovered with EphA3-Fc, anti-ephrin-A5 Western blot) [1] | binding to EphA3/ephrin-A5 complex (EphA3/ephrin-A5 complex) | also measured |
| --- | --- | --- | --- |
| CC(C)C[C@H](CC(=O)NO)C(=O)N[C@@H](Cc1ccc2ccccc2c1)C(=O)N[C@@H](C)C(=O)NCCN [TAPI] |  |  | ephrin-A5 cleavage and internalisation (EphA3/HEK293 cells; pretreated with 50 μM TAPI1 (1h)): inhibited |
| c1cnc2c(c1)ccc1cccnc12 [1,10-O-Phenanthroline] |  |  | ephrin-A5 cleavage and internalisation (EphA3/HEK293 cells; pretreated with 1 mM OPN (4h)): inhibited |
| full-length ADAM10[EEE-A] (protein) TTVAEKNTCQLYIQTDHLFFKYYGTREAVIAQISSHVKAIDTIYQTTDFSGIRNISFMVKRIRINTTADEKDPTNPFRFPNIGVEKFLELNSEQNHDDYCLAYVFTDRDFDDGVLGLAWVGAPSGSSGGICEKSKLYSDGKKKSLNTGIITVQNYGSHVPPKVSHITFAHEVGHNFGSPHDSGTECTPGESKNLGQKENGNYIMYARATSGDKLNNNKFSLCSIRNISQVLEKKRNNCFVESGQPICGNGMVEQGEECDCGYSDQCKDECCYDANQPEGKKCKLKPGKQCSPSQGPCCTAHCAFKSKTEKCRDDSDCAKEGICNGITALCPASDPKPNFTDCNRHTQVCINGQCAGSICAKHGLAACTCASSDGKDDKELCHVCCMKKMEPSTCASTGSVQWNKYFLGRTITLQPGSPCNDFRGYCDVFMRCRLVDADGPLARLKKAIFSPELYENIAEWIVAYWWAVLLMGIALIMLMAGFIKICSVHTPSSNPKLPPPKPLPGTLKRRRPPQPIQQPQRQRPRESYQMGHMRR | overexpression of mutant ADAM10 with Ala or Lys substitutions of the three Glu residues or lacking the protease domain, effectively inhibited ephrin-A5 cleavage |  |  |
| full-length ADAM10 with lysine (3K) substitutions of Glu573, 578, 579 (protein) TTVAEKNTCQLYIQTDHLFFKYYGTREAVIAQISSHVKAIDTIYQTTDFSGIRNISFMVKRIRINTTADEKDPTNPFRFPNIGVEKFLELNSEQNHDDYCLAYVFTDRDFDDGVLGLAWVGAPSGSSGGICEKSKLYSDGKKKSLNTGIITVQNYGSHVPPKVSHITFAHEVGHNFGSPHDSGTECTPGESKNLGQKENGNYIMYARATSGDKLNNNKFSLCSIRNISQVLEKKRNNCFVESGQPICGNGMVEQGEECDCGYSDQCKDECCYDANQPEGKKCKLKPGKQCSPSQGPCCTAHCAFKSKTEKCRDDSDCAKEGICNGITALCPASDPKPNFTDCNRHTQVCINGQCAGSICKKHGLKKCTCASSDGKDDKELCHVCCMKKMEPSTCASTGSVQWNKYFLGRTITLQPGSPCNDFRGYCDVFMRCRLVDADGPLARLKKAIFSPELYENIAEWIVAYWWAVLLMGIALIMLMAGFIKICSVHTPSSNPKLPPPKPLPGTLKRRRPPQPIQQPQRQRPRESYQMGHMRR | overexpression of mutant ADAM10 with Ala or Lys substitutions of the three Glu residues or lacking the protease domain, effectively inhibited ephrin-A5 cleavage |  |  |
| ADAM10D+C[EEE-A]: ADAM10D+C with Glu573, Glu578 and Glu579 mutated to alanines (protein) SGQPICGNGMVEQGEECDCGYSDQCKDECCYDANQPEGKKCKLKPGKQCSPSQGPCCTAHCAFKSKTEKCRDDSDCAKEGICNGITALCPASDPKPNFTDCNRHTQVCINGQCAGSICAKHGLAACTCASSDGKDDKELCHVCCMKKMEPSTCASTGSVQWNKYFLGRTITLQPGSPCNDFRGYCDVFMRCR |  | does not bind |  |
| ADAM10D+C[RDD-A]: ADAM10D+C with Ala substitutions of Arg525, Asp526, Asp527 (protein) SGQPICGNGMVEQGEECDCGYSDQCKDECCYDANQPEGKKCKLKPGKQCSPSQGPCCTAHCAFKSKTEKCAAASDCAKEGICNGITALCPASDPKPNFTDCNRHTQVCINGQCAGSICEKHGLEECTCASSDGKDDKELCHVCCMKKMEPSTCASTGSVQWNKYFLGRTITLQPGSPCNDFRGYCDVFMRCR |  | retains wild-type binding affinity |  |
